This is an account of results in patent EP2213302A2 (Genentech, Inc., dated 2010).

The term Kd denotes the equilibrium constant for the complex coming apart.

In the assay the target is T1, DR4 ECD immunoadhesin (human, UniProt O00220 24-218).
T1 construct: also called DR4-IgG; DR4 ECD-IgG; not shown: CH1, hinge and Fc region of human immunoglobulin G1 heavy chain
Put plainly: KinExA equilibrium, antibody in solution with DR4-IgG, DR4-IgG beads. (In general: A kinetic exclusion assay measures how much of one partner remains free in solution.)

T1 sequence (O00220 other isoform, or with tags, fused parts or gaps): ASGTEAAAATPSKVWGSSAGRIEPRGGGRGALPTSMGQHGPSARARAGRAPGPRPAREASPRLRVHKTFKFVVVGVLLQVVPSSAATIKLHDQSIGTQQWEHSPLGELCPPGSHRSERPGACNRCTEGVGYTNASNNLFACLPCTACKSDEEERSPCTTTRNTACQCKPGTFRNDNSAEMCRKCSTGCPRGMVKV

B1: 4H6.17.8 anti-DR4 monoclonal antibody (murine) (antibody, V domains shown)
VH: QVQLKESGPGLVAPSQSLSITCTVSGFSLTSYGVHWVRQPPGKGLEWLGVIWAVGSTNYNSALMSRLSISKDNSKSQVFLKMNSLQTDDTAMYYCAREGEFDYYGSSLLSYHSMNFWGQGTSVTVS
VL: DIQMTQTTSSLSASLGDRVTISCRASQDISNYLNWYQRKPDGTVKLLIYYTSRLHSGVPSRFSGSGSGTDYSLTISNLEQEDIATYFCQQGNTLPFTFGSATKLELT
notes: Murine IgG1 from hybridoma ATCC HB-12455; only the variable domains apply here; the listing has Xaa at 20)
Take B1: the affinity, expressed as Kd, was 5 pM. This counts as picomolar.
